Measured values: patent US20240059769A1 (BIOLOJIC DESIGN, published 2024)
Like-named read-outs stand apart in the source and are kept apart here. Each block holds one binder with its values, some of them ahead of it.

How the values were obtained:
recombinant human IL-13 [1] = molecular target: T1, recombinant human IL-13 (human, UniProt P35225 35-146); assay: SPR
T1 construct: also called rh-IL-13; hIL-13

human TSLP [2] = molecular target: T2, human TSLP (human, UniProt Q969D9 29-159); assay: SPR
T2 construct: also called hTSLP; rhTSLP

[3] = molecular target: T3, recombinant cynomolgus monkey IL-13 (cynomolgus monkey, UniProt Q0PW92 21-132); assay: SPR
T3 construct: bought; also called rc-IL-13; cIL-13
T3 sequence (Q0PW92 entry or part of it): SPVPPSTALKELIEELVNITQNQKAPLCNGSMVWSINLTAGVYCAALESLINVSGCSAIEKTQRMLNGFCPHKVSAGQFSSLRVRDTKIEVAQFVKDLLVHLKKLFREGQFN

[4] = molecular target: T4, cynomolgus monkey (cyno) TSLP (cynomolgus monkey, UniProt A0A7N9CAT7 29-159); assay: SPR
T4 construct: also called cTSLP; cynomolgus TSLP
T4 sequence (A0A7N9CAT7 entry or part of it): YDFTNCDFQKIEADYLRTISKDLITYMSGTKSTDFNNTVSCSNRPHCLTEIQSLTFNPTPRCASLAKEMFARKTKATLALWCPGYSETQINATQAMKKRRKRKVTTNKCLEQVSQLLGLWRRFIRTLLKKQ

recombinant human IL-13 [5] = molecular target: T1, recombinant human IL-13; assay: cell-based or functional assay
human TSLP [6] = molecular target: T2, human TSLP; assay: cell-based or functional assay
hTSLP-His [7] = molecular target: T5, hTSLP-His (human, UniProt Q969D9 29-159, limits assumed); assay: cell-based or functional assay
recombinant human IL-13 [8] = molecular target: T1, recombinant human IL-13; assay: cell-based or functional assay; remark: listed apart in the source
human TSLP [9] = molecular target: T2, human TSLP; assay: SPR (Biacore), antibody captured on anti-human Fc chip, hTSLP as analyte, multi-cycle, 1:1 binding model
hIL-13-His [10] = molecular target: T6, hIL-13-His (human, UniProt P35225 35-146); assay: SPR (Biacore), antibody captured on anti-human Fc chip, hIL-13 as analyte, multi-cycle, 1:1 binding model
T6 construct: bought; also called human IL-13 (Acro Biosystems IL3-H52H4); not shown: His tag
T6 sequence (P35225 35-146 limits assumed): as the sequence (Q0PW92 entry or part of it) above, with S1G, K10R, V42M, N67S, R83H, V100L counted along it

hIL-13-His [11] = molecular target: T6, hIL-13-His; assay: cell-based or functional assay
T6 sequence (P35225 35-146 limits assumed): as the sequence (Q0PW92 entry or part of it) above, with S1G, K10R, V42M, N67S, R83H, V100L counted along it

human TSLP [12] = molecular target: T2, human TSLP; assay: SPR (Biacore), antibody captured on anti-human Fc chip, hTSLP as analyte, multi-cycle, 1:1 binding model; remark: listed apart in the source
hIL-13-His [13] = molecular target: T6, hIL-13-His; assay: SPR (Biacore), antibody captured on anti-human Fc chip, hIL-13 as analyte, multi-cycle, 1:1 binding model; remark: listed apart in the source
recombinant human IL-13 [14] = molecular target: T1, recombinant human IL-13; assay: SPR; remark: listed apart in the source
human TSLP [15] = molecular target: T2, human TSLP; assay: SPR; remark: listed apart in the source
human TSLP [16] = molecular target: T2, human TSLP; assay: SPR (Biacore T200), antibody captured, cytokine analyte 30-0.153 nM
Procedure: CMS chip was coated with human antibody capture kit to obtain 3000-5000 RU and the antibody, served as the capture, was injected at a flow rate of 10 ul/ml to obtain 250-350 RU.

recombinant human IL-13 [17] = molecular target: T1, recombinant human IL-13; assay: SPR; remark: listed apart in the source
human TSLP [18] = molecular target: T2, human TSLP; assay: SPR; remark: listed apart in the source
[19] = molecular target: T3, recombinant cynomolgus monkey IL-13; assay: SPR; remark: listed apart in the source
[20] = molecular target: T4, cynomolgus monkey (cyno) TSLP; assay: SPR; remark: listed apart in the source
hTSLP-His [21] = molecular target: T5, hTSLP-His; assay: cell-based or functional assay; remark: listed apart in the source
recombinant human IL-13 [22] = molecular target: T1, recombinant human IL-13; assay: SPR (Biacore T200), antibody captured, hIL-13 as analyte 0.35-8.89 nM
human TSLP [23] = molecular target: T2, human TSLP; assay: SPR (Biacore T200), antibody captured, hTSLP as analyte 0.231-5.926 nM
hTSLP-His [24] = molecular target: T5, hTSLP-His; assay: competition ELISA, 7 nM TSLP-His pre-incubated with antibody; competitor Tezepelumab coated
hTSLP-His [25] = molecular target: T5, hTSLP-His; assay: competition ELISA: antibody titrated and pre-incubated with 7 nM TSLP-His, then on a plate coated with 33.001 (Tezepelumab), anti-His detection; row head on the sheet reads EC50, unit from the axis
recombinant human IL-13 [26] = molecular target: T1, recombinant human IL-13; assay: SPR, steady state, antibody captured, hIL-13 analyte
Procedure: Subsequent to a cycle, the analyte and tested antibody were stripped from the chip and new tested Ab was loaded on the chip as described above. KD was determined at a steady state condition.

human TSLP [27] = molecular target: T2, human TSLP; assay: SPR (ProteOn XPR36), antibody captured, hTSLP analyte 3.2-0.2 nM

T1 sequence (P35225 35-146 limits assumed): as the sequence (Q0PW92 entry or part of it) above, with S1G, K10R, V42M, N67S, R83H, V100L counted along it

Kd (recombinant human IL-13 [1]): 13.4 pM
koff (recombinant human IL-13 [1]): 0.00016 s⁻¹
kon (recombinant human IL-13 [1]): 1.19e+07 M⁻¹ s⁻¹
Kd (human TSLP [2]): 2.85 pM
koff (human TSLP [2]): 4.28e-05 s⁻¹
kon (human TSLP [2]): 1.5e+07 M⁻¹ s⁻¹
Kd [3]: 849 pM
koff [3]: 0.00653 s⁻¹
kon [3]: 7.7e+06 M⁻¹ s⁻¹
Kd [4]: 1.35 pM
koff [4]: 1.85e-05 s⁻¹
kon [4]: 1.37e+07 M⁻¹ s⁻¹
IC50 CD23 (recombinant human IL-13 [5]): 164 pM
IC50 TARC (human TSLP [6]): 2360 pM
IC50 [pM], STAT5 phosphorylation inhibition in MUTZ5 cells (hTSLP-His [7]): 45.2 pM
HEK-IL-13 [nM] (IC50, STAT6 reporter) (recombinant human IL-13 [8]): 0.0286 nM
Kd (human TSLP [9]): 6.61 pM
koff (human TSLP [9]): 0.000212 s⁻¹
kon (human TSLP [9]): 3.2e+07 M⁻¹ s⁻¹
Kd (hIL-13-His [10]): 52.3 pM
koff (hIL-13-His [10]): 0.000455 s⁻¹
kon (hIL-13-His [10]): 8.7e+06 M⁻¹ s⁻¹
B1: BDG38.138 (antibody, human IgG1, lambda, L234A L235A)
heavy: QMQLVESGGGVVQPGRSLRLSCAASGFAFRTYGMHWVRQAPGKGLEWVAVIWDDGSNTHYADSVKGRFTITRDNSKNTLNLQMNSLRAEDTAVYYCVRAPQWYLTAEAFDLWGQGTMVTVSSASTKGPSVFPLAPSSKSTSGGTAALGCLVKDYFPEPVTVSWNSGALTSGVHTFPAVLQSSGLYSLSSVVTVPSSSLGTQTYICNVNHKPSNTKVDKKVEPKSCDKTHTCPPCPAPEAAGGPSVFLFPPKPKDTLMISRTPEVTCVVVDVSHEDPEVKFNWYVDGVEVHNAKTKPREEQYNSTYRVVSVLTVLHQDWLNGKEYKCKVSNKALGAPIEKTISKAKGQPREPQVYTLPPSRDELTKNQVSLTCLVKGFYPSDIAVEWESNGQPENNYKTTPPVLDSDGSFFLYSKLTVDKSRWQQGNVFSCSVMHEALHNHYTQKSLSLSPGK
light: SYVLTQPPSVSVAPGETASITCGGNMIGGYLVHWYQQKPGQAPVLVIYDDVDRPSRIPERFSGSNSGNTATLTISRVEAGDEADYYCQVWDHNSNHMVFGGGTKLTVLGQPKAAPSVTLFPPSSEELQANKATLVCLISDFYPGAVTVAWKADSSPVKAGVETTTPSKQSNNKYAASSYLSLTPEQWKSHRSYSCQVTHEGSTVEKTVAPTECS
notes: human IgG1 L234A/L235A/P329G (LALAPG); also called hIgG1 LALAPG; hIgG1 LALA-PG

IC50, CD23 expression on monocytes (hPBMC, 0.7 nM IL-13) (hIL-13-His [11]): 380 pM
Kd (human TSLP [12]): 7.79 pM
koff (human TSLP [12]): 0.0002 s⁻¹
kon (human TSLP [12]): 2.57e+07 M⁻¹ s⁻¹
Kd (hIL-13-His [13]): 87.9 pM
koff (hIL-13-His [13]): 0.000323 s⁻¹
kon (hIL-13-His [13]): 3.67e+06 M⁻¹ s⁻¹
B2: BDG38.145 (antibody, human IgG1, lambda, L234A L235A)
heavy: not shown
light: SYVLTQPPSVSVAPGETASITCGGNMIGGYLVHWYQQKPGQAPVLVIYDDVDRPSRIPERFSGSNSGNTATLTISRVEAGDEADYYCQVWDHNSNHMVFGGGTKLTVLGQPKAAPSVTLFPPSSEELQANKATLVCLISDFYPGAVTVAWKADSSPVKAGVETTTPSKQSNNKYAASSYLSLTPEQWKSHRSYSCQVTHEGSTVEKTVAPTECS
notes: human IgG1 L234A/L235A (LALA); same VH/VL as BDG38.138; also called BSG38.145; hIgG1 LALA

Kd (recombinant human IL-13 [14]): 13.8 pM
koff (recombinant human IL-13 [14]): 9.36e-05 s⁻¹
kon (recombinant human IL-13 [14]): 6.77e+06 M⁻¹ s⁻¹
Kd (human TSLP [15]): 0.0127 pM
koff (human TSLP [15]): 1.82e-07 s⁻¹
kon (human TSLP [15]): 1.44e+07 M⁻¹ s⁻¹
Kd [3]: 270 pM
koff [3]: 0.006 s⁻¹
kon [3]: 2.22e+07 M⁻¹ s⁻¹
Kd [4]: 2.75 pM
koff [4]: 3.18e-05 s⁻¹
kon [4]: 1.16e+07 M⁻¹ s⁻¹
IC50 CD23 (recombinant human IL-13 [5]): 172 pM
IC50 TARC (human TSLP [6]): 356 pM
IC50 [pM], STAT5 phosphorylation inhibition in MUTZ5 cells (hTSLP-His [7]): 27.2 pM
HEK-IL-13 [nM] (IC50, STAT6 reporter) (recombinant human IL-13 [8]): 0.0487 nM
Kd (human TSLP [16]): < 1 pM
B3: BDG38.094 (antibody, V domains shown)
VH: QMQLVESGGGVVQPGRSLRLSCAASGFAFRTYGMHWVRQAPGKGLEWVAVIWDDGSNTHYADSVKGRFTITRDNSKNTLNLQMNSLRAEDTAVYYCVRAPQWYLTAEAFDLWGQGTMVTVSS
VL: SYVLTQPPSVSVAPGETASITCGGNLIGAYLVHWYQQKPGQAPLLVIYDDVDRPARIPERFSGSNSGNTATLTISRVEAGDEADYYCQVWDHNSNHMVFGGGTKLTVL
notes: IgG1

Kd (recombinant human IL-13 [17]): 31.7 pM
koff (recombinant human IL-13 [17]): 0.000385 s⁻¹
kon (recombinant human IL-13 [17]): 1.22e+07 M⁻¹ s⁻¹
Kd (human TSLP [18]): 2.21 pM
koff (human TSLP [18]): 3.27e-05 s⁻¹
kon (human TSLP [18]): 1.48e+07 M⁻¹ s⁻¹
Kd [19]: 901 pM
koff [19]: 0.0141 s⁻¹
kon [19]: 1.56e+07 M⁻¹ s⁻¹
Kd [20]: 3.97 pM
koff [20]: 4.08e-05 s⁻¹
kon [20]: 1.03e+07 M⁻¹ s⁻¹
IC50, pSTAT5 in MUTZ-5 cell line (hTSLP-His [21]): ~13 pM
IC50 CD23 (recombinant human IL-13 [5]): 71.8 pM
IC50 TARC (human TSLP [6]): 1960 pM
IC50 [pM], STAT5 phosphorylation inhibition in MUTZ5 cells (hTSLP-His [7]): 21.8 pM
HEK-IL-13 [nM] (IC50, STAT6 reporter) (recombinant human IL-13 [8]): 0.0253 nM
Kd (recombinant human IL-13 [22]): 31.7 pM
koff (recombinant human IL-13 [22]): 0.000385 s⁻¹
kon (recombinant human IL-13 [22]): 1.22e+07 M⁻¹ s⁻¹
Kd (human TSLP [23]): 2.21 pM
koff (human TSLP [23]): 3.27e-05 s⁻¹
kon (human TSLP [23]): 1.48e+07 M⁻¹ s⁻¹
IC50 (hTSLP-His [24]): 3630 pM
IC50 (hTSLP-His [25]): 3630 pM
B4: BDG38.079 (antibody, V domains shown)
VH: QMQLVESGGGVVQPGRSLRLSCAASGFAFRTYGMHWVRQAPGKGLEWVAVIWYDGSNTHYADSVKGRFTITRDNSKNTLNLQMNSLRAEDTAVYYCVRAPQWYLTAEAFDLWGQGTMVTVSS
VL: SYVLTQPPSVSVAPGETATITCGGNMIGGYLVHWYQQKPGQAPLLVIYDDVDRPDRIPERFSGSNSGNTATLTISRVEAGDEADYYCQVWDHDSNTMVFGGGTKLTVL

Kd (recombinant human IL-13 [26]): 57400 pM
Kd (human TSLP [27]): 3330 pM
koff (human TSLP [27]): 0.00114 s⁻¹
kon (human TSLP [27]): 344000 M⁻¹ s⁻¹
B5: BDG33.004 (antibody, V domains shown)
VH: QMQLVESGGGVVQPGRSLRLSCAASGFTFRTYGMHWVRQAPGKGLEWVAVIWYDGSNKHYADSVKGRFTITRDNSKNTLNLQMNSLRAEDTAVYYCARAPQWMLVAEAFDLWGQGTMVTVSS
VL: SYVLTQPPSVSVAPGQTARITCGGNLIGSKLVHWYQQKPGQAPVLVVYDDSDRPSRIPERFSGSNSGNTATLTISRVEAGDEADYYCQVWDSSSDHVVFGGGTKLTVL
notes: human IgG1, lambda light chain; also called BGD33.004; Clone C6 (as IgG1)

Kd (recombinant human IL-13 [26]): 21600 pM
Kd (human TSLP [27]): 4500 pM
koff (human TSLP [27]): 0.00129 s⁻¹
kon (human TSLP [27]): 287000 M⁻¹ s⁻¹
B6: BDG33.003 (antibody, V domains shown)
VH: QMQLVESGGGVVQPGRSLRLSCAASGFTFRTYGMHWVRQAPGKGLEWVAVIWYDGSNKHYADSVKGRFTITRDNSKNTLNLQMNSLRAEDTAVYYCARAPQWELTAEAFDIWGQGTMVTVSS
VL: SYVLTQPPSVSVAPGQTARITCGGNLIGSKLVHWYQQKPGQAPVLVVYDDSDRPSLIPERFSGSNSGNTATLTISRVEAGDEADYYCQVWDSSSDGVVFGGGTKLTVL
notes: also called BGD33.003; Clone C2 (as IgG1)
